Experimental data as given in US5985836A, “Alpha-1 proteinase inhibitor binding peptides” (Bayer Corporation, priority 1998, dated 1999).

Key:
A1PI [1] = biological target: T1, A1PI (Homo sapiens, UniProt P01009); test: A1PI binding on peptide-resin column, injection of 1 mg A1PI in equilibration buffer; conditions: 1 mg A1PI
T1 construct: Human plasma is currently the only approved source of therapeutic AlPI
Protocol: Confirmatory binding assays were performed in a column chromatographic format on a microbore HPLC using individual peptide sequences synthesized directly onto the Toyopearl 650 M Chelate resin which had been modified with Totda followed by an alanine residue (A-Totda-Toyopearl), at a final substitution density of 0.1 mmole/g resin. The resin was packed into 0.4×5 cm columns (Thomson, Springfield, Va.) and tested on the Michrom HPLC system (Michrom BioResources, Auburn, Calif.). The elution program for all trials utilized the following method. The column was pre-equilibrated with equilibration buffer (as above). 1 ml of sample was injected and allowed sufficient time to flowthrough the column using equilibration buffer. The column was then washed with step elutions of 1M NaCl and 3M NaCl in equilibration buffer. The column was exposed to equilibration buffer with 0.1M NaCl. Any remaining protein was eluted with elution buffer (2% by volume glacial acetic acid in water).
A Gilson FC204 fraction collector at the HPLC outlet collected individual eluates for further analysis. Fractions collected from the 2% acetic acid eluates were neutralized with 2M Tris, pH 10.5 to bring the pH to neutrality. The protein samples were reconstituted in equilibration buffer unless otherwise stated. The samples were analyzed by the integration of the absorbance at 280 nm or by immunonephelometry. The specific method of determination is presented for each figure.
Tables 2 and 3 present the elution profiles for 19 sequences based on the injection of 1 mg AlPI in equilibration buffer at 4° C. and 20° C., respectively. The columns were run at a constant flow rate of865 μl/min (413 cm/hr) or 523 μl/min (250 cm/hr). No dependence of the elution profile with flow rate was found. The Percent AlPI Eluted by Fraction represents the amount eluted in the flowthrough, 1M NaCl wash, and 2% acetic acid fractions relative to the total AlPI eluted. The percentages are based on either the integration of the peak areas at […]

A1PI [2] = biological target: T1, A1PI; test: Purification of A1PI from Effluent II+III on peptide column, A1PI mass balance; assay type: binding; conditions: 1 ml Eff. II+III, 4° C.; for Mass A1PI per Eluate Fraction, 2% Acetic Acid / Mass A1PI per Eluate Fraction, Flowthrough / Mass A1PI per Eluate Fraction, 1M NaCl: * Below detection limit; for Percent Eluted by Fraction, 1M NaCl / Percent Eluted by Fraction, 2% Acetic Acid / Percent Eluted by Fraction, Flowthrough: A1PI
Protocol: Sequences 1-11 and 15 were assayed with Effluent II+III (Eff. II+III). Eff. II+III is a process intermediate in the Cohn plasma fractionation process. The feed stream contains 20% (by volume) ethanol, 20-25 mg/ml hSA and approximately 1 mg/ml AlPI. The stream also contains other proteins including anti-thrombin III (AT3), immunoglobin G (IgG), immunoglobin A (IgA), apolipoprotein alpha-1 (Apo A-1), transferrin (Trf), haptoglobin (Hpt), and alpha-1 acid glycoprotein (AAG) at concentrations ranging from 0.1-1 mg/ml.
The columns were assayed using the same technique as the hSA+AlPI experiments, allowing for a 10 minute residence time followed by a constant flow rate of 865 μl/min with step elutions of 1M NaCl, 3M NaCl, and 2% acetic acid. All experiments were conducted at 4° C. The mass balances for the injection of 1 ml Eff. […] The AlPI was enriched from 3% of the total protein in the feed to upwards of 50% in the acid eluate.

T1 sequence (P01009 25-418): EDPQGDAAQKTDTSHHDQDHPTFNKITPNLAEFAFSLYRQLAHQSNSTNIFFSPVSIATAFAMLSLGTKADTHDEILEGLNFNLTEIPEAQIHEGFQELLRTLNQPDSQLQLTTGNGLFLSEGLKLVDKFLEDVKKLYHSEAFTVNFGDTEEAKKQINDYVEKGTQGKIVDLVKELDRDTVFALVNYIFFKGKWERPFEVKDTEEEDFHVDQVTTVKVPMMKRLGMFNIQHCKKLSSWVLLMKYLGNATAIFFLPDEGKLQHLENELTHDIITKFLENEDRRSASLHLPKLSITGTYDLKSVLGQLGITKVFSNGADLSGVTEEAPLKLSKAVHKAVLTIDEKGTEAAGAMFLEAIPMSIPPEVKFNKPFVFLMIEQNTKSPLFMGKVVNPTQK

% of Total A1PI Eluted by Fraction (Based on Absorbance at 280 nm), 1M NaCl (A1PI [1]; Trp position mutations, 4° C.) [%] | % of Total A1PI Eluted by Fraction (Based on Absorbance at 280 nm), 2% Acetic Acid (A1PI [1]; Trp position mutations, 4° C.) [%] | % of Total A1PI Eluted by Fraction (Based on Absorbance at 280 nm), Flowthrough (A1PI [1]; Trp position mutations, 4° C.) [%] | Mass A1PI per Eluate Fraction, 2% Acetic Acid (A1PI [2]; Table 11) [mg] | Mass A1PI per Eluate Fraction, Flowthrough (A1PI [2]; Table 11) [mg] | Percent Eluted by Fraction, 1M NaCl (A1PI [2]; Table 11) [%] | Percent Eluted by Fraction, 2% Acetic Acid (A1PI [2]; Table 11) [%] | Percent Eluted by Fraction, Flowthrough (A1PI [2]; Table 11) [%] | % of Total A1PI Eluted by Fraction (Based on Absorbance at 280 nm), 1M NaCl (A1PI [1]; VIFLVR point mutations, 4° C.) [%] | % of Total A1PI Eluted by Fraction (Based on Absorbance at 280 nm), 2% Acetic Acid (A1PI [1]; VIFLVR point mutations, 4° C.) [%] | % of Total A1PI Eluted by Fraction (Based on Absorbance at 280 nm), Flowthrough (A1PI [1]; VIFLVR point mutations, 4° C.) [%] | % of Total A1PI Eluted by Fraction (Based on Absorbance at 280 nm), 1M NaCl (A1PI [1]; VIFLVR point mutations, 20° C.) [%] | % of Total A1PI Eluted by Fraction (Based on Absorbance at 280 nm), 2% Acetic Acid (A1PI [1]; VIFLVR point mutations, 20° C.) [%] | % of Total A1PI Eluted by Fraction (Based on Absorbance at 280 nm), Flowthrough (A1PI [1]; VIFLVR point mutations, 20° C.) [%] | Mass A1PI per Eluate Fraction, 1M NaCl (A1PI [2]; Table 13) [mg] | Mass A1PI per Eluate Fraction, 2% Acetic Acid (A1PI [2]; Table 13) [mg] | Mass A1PI per Eluate Fraction, Flowthrough (A1PI [2]; Table 13) [mg] | Percent Eluted by Fraction, 1M NaCl (A1PI [2]; Table 13) [%] | Percent Eluted by Fraction, 2% Acetic Acid (A1PI [2]; Table 13) [%] | Percent Eluted by Fraction, Flowthrough (A1PI [2]; Table 13) [%] | Substance | other results
– | – | – | – | – | – | – | – | 3 | 97 | 0 | 7 | 93 | 0 | 0.08 | 0.54 | 0.16 | 10 | 69 | 21 | H I F L V R: point mutation of VIFLVR, position 1 (HIFLVR) | –
5 | 95 | 0 | 0.50 | 0.31 | 4 | 59 | 37 | – | – | – | – | – | – | – | – | – | – | – | – | V I V L V R: VIWLVR with Trp at position 3 replaced by Val (VIVLVR) | Mass A1PI per Eluate Fraction, 1M NaCl (A1PI [2]; Table 11): 0.04 mg
100 | 0 | 0 | 0.26 | 0.14 | 26 | 49 | 25 | – | – | – | – | – | – | – | – | – | – | – | – | V I S L V R: VIWLVR with Trp at position 3 replaced by Ser (VISLVR) | % of Total A1PI Eluted by Fraction (Based on Absorbance at 280 nm), 1M NaCl (A1PI [1]; Trp position mutations, 20° C.): 75%; % of Total A1PI Eluted by Fraction (Based on Absorbance at 280 nm), 2% Acetic Acid (A1PI [1]; Trp position mutations, 20° C.): 14%; % of Total A1PI Eluted by Fraction (Based on Absorbance at 280 nm), Flowthrough (A1PI [1]; Trp position mutations, 20° C.): 11%; Mass A1PI per Eluate Fraction, 1M NaCl (A1PI [2]; Table 11): 0.14 mg
7 | 93 | 0 | 0.54 | 0.42 | 7 | 52 | 41 | – | – | – | – | – | – | – | – | – | – | – | – | V I L L V R: VIWLVR with Trp at position 3 replaced by Leu (VILLVR) | Mass A1PI per Eluate Fraction, 1M NaCl (A1PI [2]; Table 11): 0.07 mg

The next lines start with the substance.

Substance | % of Total A1PI Eluted by Fraction (Based on Absorbance at 280 nm), 1M NaCl (A1PI [1]; Trp position mutations, 4° C.) [%] | % of Total A1PI Eluted by Fraction (Based on Absorbance at 280 nm), 2% Acetic Acid (A1PI [1]; Trp position mutations, 4° C.) [%] | % of Total A1PI Eluted by Fraction (Based on Absorbance at 280 nm), Flowthrough (A1PI [1]; Trp position mutations, 4° C.) [%] | Mass A1PI per Eluate Fraction, 2% Acetic Acid (A1PI [2]; Table 11) [mg] | Mass A1PI per Eluate Fraction, Flowthrough (A1PI [2]; Table 11) [mg] | Percent Eluted by Fraction, 1M NaCl (A1PI [2]; Table 11) [%] | Percent Eluted by Fraction, 2% Acetic Acid (A1PI [2]; Table 11) [%] | Percent Eluted by Fraction, Flowthrough (A1PI [2]; Table 11) [%] | % of Total A1PI Eluted by Fraction (Based on Absorbance at 280 nm), 1M NaCl (A1PI [1]; VIFLVR point mutations, 4° C.) [%] | % of Total A1PI Eluted by Fraction (Based on Absorbance at 280 nm), 2% Acetic Acid (A1PI [1]; VIFLVR point mutations, 4° C.) [%] | % of Total A1PI Eluted by Fraction (Based on Absorbance at 280 nm), Flowthrough (A1PI [1]; VIFLVR point mutations, 4° C.) [%] | % of Total A1PI Eluted by Fraction (Based on Absorbance at 280 nm), 1M NaCl (A1PI [1]; VIFLVR point mutations, 20° C.) [%] | % of Total A1PI Eluted by Fraction (Based on Absorbance at 280 nm), 2% Acetic Acid (A1PI [1]; VIFLVR point mutations, 20° C.) [%] | % of Total A1PI Eluted by Fraction (Based on Absorbance at 280 nm), Flowthrough (A1PI [1]; VIFLVR point mutations, 20° C.) [%] | Mass A1PI per Eluate Fraction, 1M NaCl (A1PI [2]; Table 13) [mg] | Mass A1PI per Eluate Fraction, 2% Acetic Acid (A1PI [2]; Table 13) [mg] | Mass A1PI per Eluate Fraction, Flowthrough (A1PI [2]; Table 13) [mg] | Percent Eluted by Fraction, 1M NaCl (A1PI [2]; Table 13) [%] | Percent Eluted by Fraction, 2% Acetic Acid (A1PI [2]; Table 13) [%] | Percent Eluted by Fraction, Flowthrough (A1PI [2]; Table 13) [%] | other results
V I N L V R: VIWLVR with Trp at position 3 replaced by Asn (VINLVR) | 8 | 92 | 0 | 0.53 | 0.44 | 0 | 55 | 45 | – | – | – | – | – | – | – | – | – | – | – | – | % of Total A1PI Eluted by Fraction (Based on Absorbance at 280 nm), 1M NaCl (A1PI [1]; Trp position mutations, 20° C.): 7%; % of Total A1PI Eluted by Fraction (Based on Absorbance at 280 nm), 2% Acetic Acid (A1PI [1]; Trp position mutations, 20° C.): 93%; % of Total A1PI Eluted by Fraction (Based on Absorbance at 280 nm), Flowthrough (A1PI [1]; Trp position mutations, 20° C.): 0%
K I F L V R: point mutation of VIFLVR, position 1 (KIFLVR) | – | – | – | – | – | – | – | – | 3 | 97 | 0 | 0 | 100 | 0 | 0.03 | 0.51 | 0.32 | 3 | 59 | 38 | –
A I F L V R: point mutation of VIFLVR, position 1 (AIFLVR) | – | – | – | – | – | – | – | – | 4 | 96 | 0 | 3 | 92 | 5 | 0.07 | 0.59 | 0.33 | 7 | 60 | 33 | –
R I F L V R: point mutation of VIFLVR, position 1 (RIFLVR) | – | – | – | – | – | – | – | – | 0 | 100 | 0 | – | – | – | – | 0.50 | 0.24 | 0 | 67 | 33 | –
S I F L V R: point mutation of VIFLVR, position 1 (SIFLVR) | – | – | – | – | – | – | – | – | 7 | 93 | 0 | 6 | 81 | 13 | 0.04 | 0.52 | 0.61 | 3 | 44 | 52 | –
V I A L V R: VIWLVR with Trp at position 3 replaced by Ala (VIALVR) | 92 | 8 | 0 | 0.35 | 0.18 | 8 | 61 | 31 | – | – | – | – | – | – | – | – | – | – | – | – | % of Total A1PI Eluted by Fraction (Based on Absorbance at 280 nm), 1M NaCl (A1PI [1]; Trp position mutations, 20° C.): 36%; % of Total A1PI Eluted by Fraction (Based on Absorbance at 280 nm), 2% Acetic Acid (A1PI [1]; Trp position mutations, 20° C.): 53%; % of Total A1PI Eluted by Fraction (Based on Absorbance at 280 nm), Flowthrough (A1PI [1]; Trp position mutations, 20° C.): 10%; Mass A1PI per Eluate Fraction, 1M NaCl (A1PI [2]; Table 11): 0.05 mg
